Data: IntAct's records for PubMed 19318624

B1: Glycogen accumulation regulator GarA (Mycobacterium tuberculosis (strain ATCC 25618 / P9WJA9 (parent)
chain: MTDMNPDIEKDQTSDEVTVETTSVFRADFLSELDAPAQAGTESAVSGVEGLPPGSALLVVKRGPNAGSRFLLDQAITSAGRHPDSDIFLDDVTVSRRHAEFRLENNEFNVVDVGSLNGTYVNREPVDSAVLANGDEVQIGKFRLVFLTGPKQGEDDGSTGGP
partner: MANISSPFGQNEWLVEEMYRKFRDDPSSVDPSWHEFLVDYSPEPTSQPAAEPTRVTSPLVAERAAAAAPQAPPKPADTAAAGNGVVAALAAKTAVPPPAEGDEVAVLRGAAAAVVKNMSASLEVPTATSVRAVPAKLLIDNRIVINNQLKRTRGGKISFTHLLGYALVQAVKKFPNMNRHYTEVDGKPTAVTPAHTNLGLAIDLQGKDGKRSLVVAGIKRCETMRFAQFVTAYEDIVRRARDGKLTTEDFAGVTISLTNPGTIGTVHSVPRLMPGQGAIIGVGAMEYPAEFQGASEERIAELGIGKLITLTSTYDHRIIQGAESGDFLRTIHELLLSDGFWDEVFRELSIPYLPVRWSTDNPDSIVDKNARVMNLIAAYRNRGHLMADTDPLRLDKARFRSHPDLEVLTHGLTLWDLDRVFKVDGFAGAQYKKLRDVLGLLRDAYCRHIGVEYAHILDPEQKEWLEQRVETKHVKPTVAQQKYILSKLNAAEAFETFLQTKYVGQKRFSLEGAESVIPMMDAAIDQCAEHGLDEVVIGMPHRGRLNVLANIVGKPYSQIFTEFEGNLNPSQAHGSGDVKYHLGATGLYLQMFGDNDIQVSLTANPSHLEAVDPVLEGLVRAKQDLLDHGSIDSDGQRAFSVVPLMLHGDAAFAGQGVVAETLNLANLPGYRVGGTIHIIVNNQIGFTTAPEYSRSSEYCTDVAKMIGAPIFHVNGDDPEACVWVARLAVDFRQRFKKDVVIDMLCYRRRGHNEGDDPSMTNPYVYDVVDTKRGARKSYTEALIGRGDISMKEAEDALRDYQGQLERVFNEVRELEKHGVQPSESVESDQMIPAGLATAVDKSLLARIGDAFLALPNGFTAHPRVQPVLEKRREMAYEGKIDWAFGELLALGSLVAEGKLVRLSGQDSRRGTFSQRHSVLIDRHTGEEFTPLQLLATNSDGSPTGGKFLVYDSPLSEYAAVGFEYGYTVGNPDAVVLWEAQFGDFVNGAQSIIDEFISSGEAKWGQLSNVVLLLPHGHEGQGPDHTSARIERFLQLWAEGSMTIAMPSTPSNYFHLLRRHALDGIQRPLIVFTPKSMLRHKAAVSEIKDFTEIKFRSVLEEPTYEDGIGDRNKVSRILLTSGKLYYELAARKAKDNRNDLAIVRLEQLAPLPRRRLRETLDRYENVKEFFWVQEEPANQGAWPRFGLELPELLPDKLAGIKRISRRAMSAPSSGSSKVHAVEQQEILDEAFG
B2: Glycogen accumulation regulator GarA (Mycobacterium tuberculosis (strain ATCC 25618 / P9WJA9 (parent)
chain: B1 chain

Variants of: B1
Conditions: with kgd_myctu kgd

Row | Variant | effect of a mutation on the interaction
1 | MTDMNPDIEKDQTSDEVTVETTSVFRADFLSELDAPAQAGTESAVSGVEGLPPGSALLVVKRGPNAGSRFLLDQAITSAGRHPDSDIFLDDVTVSRRHAEFRLENNEFNVVDVGSLAGTYVNREPVDSAVLANGDEVQIGKFRLVFLTGPKQGEDDGSTGGP | disrupting interaction
2 | MTDMNPDIEKDQTSDEVTVETTSVFRADFLSELDAPAQAGTESAVSGVEGLPPGSALLVVKRGPNAGSRFLLDQAITSAGRHPDSDIFLDDVTVSRRHAEFRLENNEFNVVDVGSLNGTYVNREPVDSAVLANGDEVQIGKFELVFLTGPKQGEDDGSTGGP | disrupting interaction
3 | MTDMNPDIEKDQTSDEVTVETTSVFRADFLSELDAPAQAGTESAVSGVEGLPPGSALLVVKRGPNAGSRFLLDQAITSAGRHPDSDIFLDDVTVSRRHAEFRLENNEFNVVDVGSLNGTYVNREPVDSAVLANGDEVQIGEFRLVFLTGPKQGEDDGSTGGP | disrupting interaction

Variants of: B2
Conditions: with gltb_myctu gltB

Row | Variant | effect of a mutation on the interaction
4 | MTDMNPDIEKDQTSDEVTVETTSVFRADFLSELDAPAQAGTESAVSGVEGLPPGSALLVVKRGPNAGSRFLLDQAITSAGRHPDSDIFLDDVTVSRRHAEFRLENNEFNVVDVGSLAGTYVNREPVDSAVLANGDEVQIGKFRLVFLTGPKQGEDDGSTGGP | disrupting interaction
5 | MTDMNPDIEKDQTSDEVTVETTSVFRADFLSELDAPAQAGTESAVSGVEGLPPGSALLVVKRGPNAGSRFLLDQAITSAGRHPDSDIFLDDVTVARRHAEFRLENNEFNVVDVGSLNGTYVNREPVDSAVLANGDEVQIGKFRLVFLTGPKQGEDDGSTGGP | disrupting interaction
6 | MTDMNPDIEKDQTSDEVTVETTSVFRADFLSELDAPAQAGTESAVSGVEGLPPGSALLVVKRGPNAGSRFLLDQAITSAGRHPDSDIFLDDVTVSRRHAEFRLENNEFNVVDVGSLNGTYVNREPVDSAVLANGDEVQIGEFRLVFLTGPKQGEDDGSTGGP | disrupting interaction

Variants of: B2
Conditions: with dhe2_myctu gdh

Row | Variant | effect of a mutation on the interaction
7 | MTDMNPDIEKDQTSDEVTVETTSVFRADFLSELDAPAQAGTESAVSGVEGLPPGSALLVVKRGPNAGSRFLLDQAITSAGRHPDSDIFLDDVTVSRRHAEFRLENNEFNVVDVGSLAGTYVNREPVDSAVLANGDEVQIGKFRLVFLTGPKQGEDDGSTGGP | decreasing interaction

Variants of: B2
Conditions: with dhe2_myctu gdh
Remark: another data set of the same source

Row | Variant | effect of a mutation on the interaction
8 | MTDMNPDIEKDQTSDEVTVETTSVFRADFLSELDAPAQAGTESAVSGVEGLPPGSALLVVKRGPNAGSRFLLDQAITSAGRHPDSDIFLDDVTVARRHAEFRLENNEFNVVDVGSLNGTYVNREPVDSAVLANGDEVQIGKFRLVFLTGPKQGEDDGSTGGP | decreasing interaction
9 | MTDMNPDIEKDQTSDEVTVETTSVFRADFLSELDAPAQAGTESAVSGVEGLPPGSALLVVKRGPNAGSRFLLDQAITSAGRHPDSDIFLDDVTVSRRHAEFRLENNEFNVVDVGSLNGTYVNREPVDSAVLANGDEVQIGKFELVFLTGPKQGEDDGSTGGP | disrupting interaction
10 | MTDMNPDIEKDQTSDEVTVETTSVFRADFLSELDAPAQAGTESAVSGVEGLPPGSALLVVKRGPNAGSRFLLDQAITSAGRHPDSDIFLDDVTVSRRHAEFRLENNEFNVVDVGSLNGTYVNREPVDSAVLANGDEVQIGEFRLVFLTGPKQGEDDGSTGGP | disrupting interaction
